In patent EP4039818A1:

Molecular target: a-sACE2 (enzymatically active soluble ACE2) as measured in Example 7b (UniProt Q9BYF1)
Assay: cell-based or functional assay

enzymatic activity measurement performed according to the enzymatic activity assay of example 3a: > 5 µg/mL
Substance: goat polyclonal anti-human ACE2 antibody (R&D Systems, #AF933)
